Data on 40 sequences can be found in the nanobody polyreactivity screen of Harvey et al. (2022).

This data set in a line: yeast display, Sf9 membrane polyspecificity reagent, FACS + sequencing; frameworks hold sequencing errors. The gist of the method:
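In a synthetic yeast display library (Saccharomyces cerevisiae BJ5465), nanobody expression was induced with galactose for 36–48 hours. FACS gates were set low and high (top ~1%) using anti-HA fluorescence for expression and streptavidin fluorescence for binding of the Sf9 membrane reagent. Each polyreactivity label is drawn from the gate of origin.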
“QVQLVESGVGLVKAGGILRLSCAASGSIFLRYAMGWYRQAPGKERELVATISKSGGSTYYADSVKGRFTISRDNAKNTVYLQMNSLNPEDTAVYYCAAGYVYFQTYYYWGQGTQVTVSS”: the “polyreactivity (PSR sort gate)” value was “high polyreactivity”.
Next, “QVQLVESGVGLVQAAGSLRLSCAASGSIFPDNAMGWSRQAPGKERELVAAIDKGTGSTNYADSVKGRFTISRDNAKNTVYLQMNSLKPEDTAVYYCATYVVTLYWWYTYDYWGQGTQVTVSS”: “low polyreactivity”; “QVQLVESGVGLVQAGASLRLSCAASGFIFRKNAMGWYRQAPGKERELVAAISGSGGRTYYADSVKGRFTISRDNAKNTVYLQMNSVKPEDNAVYYCNADYLSRRYSFDYWGQGTQVTVSS”: “high polyreactivity”; “QVQLVESGVGLVQAGGRLRLSCAASGSIFPTNAMGWYRQAPGKERELVAAISGSGGSTYYADSVKGRFTISRDNAKNTVYLQMNSLKPEDTAVYYCAVKPAPTRTTKRLVYGYNYWGQGTQVTVSS”: “high polyreactivity”.
Next, “QVQLVESGVGLVQAGGRLRLSCASSAIIFKIYAMGWYRQAPGKERELVADITSVGSTKYADSVKGRFTISRDNAKNTVYLQMNSLKPEDTAVYYCATDWVTSHDDDYWGQGTQVTVSS”: “low polyreactivity”; “QVQLVESGVGLVQAGGSLRISCAASGGTFLWYAMGRYRQAPGKERELVADITYSGGSTYYADSVKGRFTISRDNAKNTVYLQMNSLKPEDTAVYYCATRGVSPSRPGYYWGQGTQVTVSS”: “high polyreactivity”.
Next, “QVQLVESGVGLVQAGGSLRLICAASGGTFEFYTMGRYRQAPGKERELVAVINASGDSTYYADSVKGRFTISRDNAKNTVYLQMNSLKPEDTAVYYCAADHRGEYDYWGQGTQVTGSS”: “low polyreactivity”.
Consider “QVQLVESGVGLVQAGGSLRLICAASGITFSGYDMVWYRQAPWKERELVAAISGSGTSTYYADSEKGRFTISRDKAKNTVYLQMNSLKPEDTAVYYCAARDAIFGSDYWGQGTQVTVSS”, for which the “polyreactivity (PSR sort gate)” value was “high polyreactivity”.
As for “QVQLVESGVGLVQAGGSLRLICAASGMTFDNYAMGWYRQAPGKERELVAAITSGDGTYYADSVKGRFTISRDNAKNTVYLQMNSLKPEDTAVFYCAVQGSRTENYDWYYYWGQGTQVTVSS”, the entry is “low polyreactivity”; as for “QVQLVESGVGLVQAGGSLRLICAASGSTFYYYAMGWYRQAPGKEREFVAAISSSTGSTYYADSVKGRFTISRDNAKNTVYLQLNSLKPEDTAVYYCNALTWYTSQDYDYWGQGTQVTVSS”, “high polyreactivity”; as for “QVQLVESGVGLVQAGGSLRLSCAASGFIIYGYVMGWYRQAPGKERELVAAINSSSGRTYYADSVKGRFTISRDNAKNTVYLQMNSLKPEDTAVYYCAAYYYGSYDGTPYDYWGQGTQVTVSS”, “low polyreactivity”.
As for “QVQLVESGVGLVQAGGSLRLSCAASGFMFGGSAMGWKRQAPGKERELVAAITRSGGSTYYADSVKGRFTISRDNAKNTVYLQMNSLKPEDTAVYYCAAERQPYRTSSYNYWGQGTQVTVSS”, the entry is “high polyreactivity”.
Next, “QVQLVESGVGLVQAGGSLRLSCAASGFTFQQYAMAWYRQAPGKERELVASISSSGGSTYYADSVKGRFTISRDNAKNTVYLQMNSLKPEDTAVYYCNARSWVRRYIYYYWGQGTQVTVSS”: “high polyreactivity”; “QVQLVESGVGLVQAGGSLRLSCAASGFTIYRYAMGWYRQAPGKERELVAAISRGVNTNYADSVKGRFTISRDNAKNTVYLQMNSLKPEETAVYDCAARYDNPSYRTTYGFWGQGTQVTLSS”: “high polyreactivity”; “QVQLVESGVGLVQAGGSLRLSCAASGGIFSTYTMGWYIQAPGKERELVAAITTGNSTYYADSVKGRFTISRDNAKNTVYLQMNSLKPEDTAVYYCAAFAASRDYYRRLIHDGYDYWGQGTQVTVSS”: “low polyreactivity”.
As for “QVQLVESGVGLVQAGGSLRLSCAASGITFYGYTMGWYRQAPGKEMELVASIRWRGGNTYYADSVKGRFTISRDNAKITVYLQMNSLKPEDTAVYYCNARARVYYYKEIVAYDYWGQGTQVTVSS”, the “polyreactivity (PSR sort gate)” value is recorded as “high polyreactivity”.
Next, “QVQLVESGVGLVQAGGSLRLSCAASGLIFQGYAMGWYTQAPGKERELVAAITLSGGSTYYADSVKGRFTISRDNAKITDYLLMNSLKPEDTAVYYCNAYYPDEPSLYDYWGQGTQVTVSS”: “low polyreactivity”; “QVQLVESGVGLVQAGGSLRLSCAASGLTFYLYSMGWYRQAPGKERELVAAINSRGGNTYYADSVKGRFTISRDKAKNTVDLQMNSLKPEDTAVYYCAADWGPWYYYWGQGTQVTVSS”: “high polyreactivity”; “QVQLVESGVGLVQAGGSLRLSCAASGRICVKYAMGWYRQAPGKERELVAAISASGGGTYYADSVKGRFTISRDNAKNTVYLQMNSLKPEDTAVYYCNADFRYPGQVPSYVTYDYWGQGTQVTVSS”: “low polyreactivity”.
As for “QVQLVESGVGLVQAGGSLRLSCAASGRIFDGYDMGWYRQAPGKERELVAAITSVGSTNYADSVKGRFTISRDNAKNTVYLQMNSLKPEDTAVYYCAAVLYVFYDEYGYWEYFSQYDYWGQGTQVTVSS”, the entry is “low polyreactivity”.
As for “QVQLVESGVGLVQAGGSLRLSCAASGRIFPTYAMGWYRQAPGQERELVAGITSGGRTNYADSVKGRFTISRDNAKNTVYLQMNSLKPEDTAVYYCAKRVWPRDQYGKRNPRMDYWGQGTQVTVSS”, the entry is “high polyreactivity”; as for “QVQLVESGVGLVQAGGSLRLSCAASGRIFWDYGMGWYRQAPGKERELVAVITWGGGSTYYADSVKGRFTISRDNAKNTVYLQMNSLKPEDTAVYYCAKEYHYYYWGQGTEVTVSS”, “low polyreactivity”.
With “QVQLVESGVGLVQAGGSLRLSCAASGRIFYLYAMGWYRQAPGKDSELVAAITWSGGSTTYADSVKVRFTISRDNAKNSVYLQMNSLKPEETAVYYCNADGWIFPSVSPMDYWGQGTQVTVSS”, the “polyreactivity (PSR sort gate)” value is on record as “low polyreactivity”.
As for “QVQLVESGVGLVQAGGSLRLSCAASGRTFPYNAMGWYRQAPGKERELVAVISSSGGSTYYADSVKGRFTISRDNAKNTVYLQMNSLKPEDTAVYYCNTRPYFYRRPGYRYSGYDYWGLGTQVTVSS”, the entry is “high polyreactivity”; as for “QVQLVESGVGLVQAGGSLRLSCAASGRTFYKNAMGWSRQSPGKERELVAAISRRGGTTYYADSVKGRFTISRDNAKNTVYLQLNSPKPEDTAVYYCAVTRLGPTIGFYYWGQGTQVTVSS”, “high polyreactivity”; as for “QVQLVESGVGLVQAGGSLRLSCAASGRTFYVYAMGWNIQAPGKERELVAAISWGRGSTYYADSVKGRFTNSRDYAKNTVYLQMNSLQPEDTAVYYCADDKTRYRLGRDYWGQGTQVTVSS”, “low polyreactivity”.
Next, “QVQLVESGVGLVQAGGSLRLSCAASGSIFATNDMGWYRQAPGKERELVASISSGGGSTYYADSVKGRFTISRDNAKNTVYFQMNSLKPEDTAVYYCAADRGDTYTTDYDYWGQGTQVTLSS”: “low polyreactivity”.
On to “QVQLVESGVGLVQAGGSLRLSCAASGSIFHINAMGWSRQAPGKERELEADISQRGGSTYYADSVKGRFTISRDNAKNTVYLQMNSLKPEDTAVYFCAVVHVFYAVSYFSFYTYDYWGQGTQVTLSS”, for which the “polyreactivity (PSR sort gate)” value is recorded as “low polyreactivity”.
Next, “QVQLVESGVGLVQAGGSLRLSCAASGSIFQDNAMGWYRQAPGKERELVAAISSGDSTYYADSVKGRFTISRDNAKNTVYLQMNSLKPEDTAVYYCAKVPSRWSRQDKAQFDYWGQGTQVTVSS”: “low polyreactivity”.
As for “QVQLVESGVGLVQAGGSLRLSCAASGSIFYDNAMGWYRQAPGKERELVAVITVSGDSTYYADSVKGRFTISRDNAKNTVYLQMNSLKPEDTAVYYCNTDAISGSHFWRYITFGYLDDYWGQGTQVTVSS”, the entry is “low polyreactivity”; as for “QVQLVESGVGLVQAGGSLRLSCAASGSIFYSNAMGRYRQAPGKERELVASIRGSGVSTYYADSVKGRFTISRDNAKNTVYLQMNRLKPEDTAVYYCAARYGRSYFGYYYWGQGTQVTVSS”, “high polyreactivity”.
As for “QVQLVESGVGLVQAGGSLRLSCAASGSIFYVYAMGWYRQAPGKERELVAAITNYADSVKGRFTISRDNAKNTVYLQMNSLKPEDTAVYYCAADWWRVEMDYWGQGTQVTVSS”, the entry is “low polyreactivity”; as for “QVQLVESGVGLVQAGGSLRLSCAASGSTFGTYDMGWFRQAPGKERELVAAITWIGDTTYYADSVKGRFTISRDNAKNTVYLQMNSLIPEDTAVYYCAAEPNYQYYGPLGYDYWGQGTQVTVSS”, “low polyreactivity”.
Regarding “QVQLVESGVGLVQAGGSLRLSCAASGSTFKYYGMGWYRQAPGKERELVASISSSGTRTYYADSVKGRFTISSDNAKNTVYLQMNSLKPEDTAVYYCAADSYATYFLYDSWGQGTQVSVSS”, the “polyreactivity (PSR sort gate)” value was “low polyreactivity”.
On to “QVQLVESGVGLVQAGGSLRLSCAASGSTFNYYAMGWYRQAPGKERELVAAISSRSSRTFYADSVKGRFTISRDNAKNTVYLQMHSVKPEDTAVYYCAVKKSAPDGDYWGQGTQVTVSS”, for which the “polyreactivity (PSR sort gate)” value is reported as “high polyreactivity”.
As for “QVQLVESGVGLVQAGGSLRLSCAASGSTFRSNALGWYRQAPGKEREVVAGISSGGGTYYADSVKGRFTISRDNAKNTVYLQMNSLKPEDTAVYYCAKVVYFGWSVQYYYWGQGTQVTVSS”, the entry is “low polyreactivity”; as for “QVQLVESGVGLVQAGGSLRLSCAASGSTLFVYAMGRYRQAPGKERELVAAISRGGSTYYADSVKGRFTISRDNAKNTVYLQMNSLKPEDTAVYYCAAVGGYPRYGYWGQGTQVTVSS”, “high polyreactivity”; as for “QVQLVESGVGLVQAGGSLRLSCAASGSTLFVYTKGWSRQAPGKERELVAAITSSGGSTYYADSVKGRFTISRDKAKNTVYLQMNSLKAQDTAVYYCAAKELGSPYDYWGQGTQVTVSS”, “high polyreactivity”.
Next, “QVQLVESGVGLVQAGGSLRLSCAASGTTIVSYAMGWYRQAPGKEMEFVATISISGTSTYYADSVKGRFTISRDNAKNTVYLQMNSLKPEDTAVYYCAARLRPRGATQFYRYDYWGQGTQVTVSS”: “high polyreactivity”; “QVQLVESGVGLVQAGGSLRLSCAASGYTIDWYTMGWYRQAPGKERELVAAISASGVRTYYADSVKGRFTISRDNAKNTVYLQMNSLKPEDTGVYYCNRVYSTSRITQYEFDYWGQGTQVTLSS”: “low polyreactivity”.
